Source: patent publication EP2500357A2 (Abbott Laboratories, dated 2012)

Legend:
Test in all cases: cell-based or functional assay
mouse IL-1α = molecular target: T1, mouse IL-1α (mouse, UniProt P01582 115-270)
T1 sequence (looked up): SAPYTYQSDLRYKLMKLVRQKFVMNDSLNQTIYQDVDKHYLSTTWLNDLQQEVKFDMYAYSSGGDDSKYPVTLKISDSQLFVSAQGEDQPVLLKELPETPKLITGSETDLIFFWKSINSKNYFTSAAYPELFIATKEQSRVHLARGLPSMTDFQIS

mouse IL-1β = mouse IL-1β (mouse, UniProt P10749 118-269)
recombinant human IL-1α [1] = molecular target: T2, recombinant human IL-1α (human, UniProt P01583 113-271)
T2 sequence (looked up): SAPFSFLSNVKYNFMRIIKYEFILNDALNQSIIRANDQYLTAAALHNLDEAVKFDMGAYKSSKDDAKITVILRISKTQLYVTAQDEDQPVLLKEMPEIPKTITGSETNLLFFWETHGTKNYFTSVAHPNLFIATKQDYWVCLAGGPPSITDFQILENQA

recombinant human IL-1α [2] = molecular target: T2, recombinant human IL-1α; remark: listed apart in the source
recombinant human IL-1β [3] = molecular target: T3, recombinant human IL-1β (human, UniProt P01584 117-269)
recombinant human IL-1α [4] = molecular target: T2, recombinant human IL-1α; remark: listed apart in the source
recombinant human IL-1β [5] = molecular target: T3, recombinant human IL-1β; remark: listed apart in the source
recombinant human IL-1β [6] = molecular target: T3, recombinant human IL-1β; remark: listed apart in the source
recombinant human IL-1β [7] = molecular target: T3, recombinant human IL-1β; remark: listed apart in the source
human IL-12 [8] = molecular target: T4, human IL-12 (human, UniProt P29459 23-219; P29460 23-328)
T4 sequence (looked up) 1: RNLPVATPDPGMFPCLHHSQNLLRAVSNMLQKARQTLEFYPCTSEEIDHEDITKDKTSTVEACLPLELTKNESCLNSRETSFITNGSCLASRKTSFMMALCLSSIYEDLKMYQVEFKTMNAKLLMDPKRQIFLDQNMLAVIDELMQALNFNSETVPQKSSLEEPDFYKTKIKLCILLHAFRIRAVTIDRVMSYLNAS
T4 sequence (looked up) 2: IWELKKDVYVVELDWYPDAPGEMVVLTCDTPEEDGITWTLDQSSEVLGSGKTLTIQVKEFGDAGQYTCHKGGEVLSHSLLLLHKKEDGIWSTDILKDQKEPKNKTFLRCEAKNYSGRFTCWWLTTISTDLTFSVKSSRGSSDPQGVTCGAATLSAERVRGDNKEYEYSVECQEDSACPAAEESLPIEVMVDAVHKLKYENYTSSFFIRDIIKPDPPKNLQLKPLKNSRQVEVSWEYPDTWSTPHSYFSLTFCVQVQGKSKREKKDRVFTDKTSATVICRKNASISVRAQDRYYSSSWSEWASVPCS

human IL-18 = human IL-18 (human, UniProt Q14116 37-193)
human IL-12 [9] = molecular target: T4, human IL-12; remark: listed apart in the source

mouse IL-1β, sequence (P10749 118-269 limits assumed): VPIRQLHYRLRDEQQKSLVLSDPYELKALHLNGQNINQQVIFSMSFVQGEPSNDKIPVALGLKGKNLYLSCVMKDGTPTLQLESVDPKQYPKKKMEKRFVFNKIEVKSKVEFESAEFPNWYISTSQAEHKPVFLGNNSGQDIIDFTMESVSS

B1: mIL-1α/β DVD-Ig (bispecific antibody, mouse IgG2a, kappa)
heavy: EVQLQQSGPELVKPGTSVKMSCKTSGYTFTSYVMHWVKQKPGQGLEWIGYIIPYNDNTKYNEKFKGKATLTSDKSSSTAYMELSSLTSEDSAVYYCARRNEYYGSSFFDYWGQGTTLTVSSAKTTAPSVYPLAPQVILKESGPGILQPSQTLSLTCSFSGFSLSTYGTAVNWIRQPSGKGLEWLAQIGSDDRKLYNPFLKSRITLSEDTSNSQVFLKITSVDTEDSATYYCANGVMEYWGLGTSVTVSSAKTTAPSVYPLAPVCGDTTGSSVTLGCLVKGYFPEPVTLTWNSGSLSSGVHTFPAVLQSDLYTLSSSVTVTSSTWPSQSITCNVAHPASSTKVDKKIEPRGPTIKPCPPCKCPAPNLLGGPSVFIFPPKIKDVLMISLSPIVTCVVVDVSEDDPDVQISWFVNNVEVHTAQTQTHREDYNSTLRVVSALPIQHQDWMSGKEFKCKVNNKDLPAPIERTISKPKGSVRAPQVYVLPPPEEEMTKKQVTLTCMVTDFMPEDIYVEWTNNGKTELNYKNTEPVLDSDGSYFMYSKLRVEKKNWVERNSYSCSVVHEGLHNHHTTKSFSRTPGK
light: DIQMTQSPASLSASVGETVTITCRGSGILHNYLVWYQQKQGKSPQLLVYSAKILADGVPSRFSGSGSGTQYSLKINSLQPEDFGSYYCQHFWSTPFTFGSGTKLEIKRADAAPTVSIFPPSIVMTQTPKFLLVSAGDRVTITCKASQSVNHDVAWYQQMPGQSPKLLIYFASNRYTGVPDRFTGSGYGTDFTFTISTVQAEDLAVYFCQQDYSSPYTFGGGTKLEIKRADAAPTVSIFPPSSEQLTSGGASVVCFLNNFYPKDINVKWKIDGSERQNGVLNSWTDQDSKDSTYSMSSTLTLTKDEYERHNSYTCEATHKTSTSPIVKSFNRNEC
Mouse IL-1α
  IC50, in vitro potency (assay not described): 2 nM
Mouse IL-1β
  IC50, in vitro potency (assay not described): 0.8 nM

B2: murine anti-hIL-1α mAb 3D12.E3 (antibody, V domains shown)
VH: QIQLVQSGPELKKPGETVKISCKASGYTFRNYGMNWVKQAPGKDLKRMAWINTYTGESTYADDFKGRFAFSLETSASTAYLQINNLKNEDTATYFCARGIYYYGSSYAMDYWGQGTSVTVSS
VL: NIQMTQTTSSLSASLGDRVTISCRASQDISNCLNWYQQKPDGTVKLLIYYTSRLHSGVPSRFSGSGSGTDYSLTISNLEQEDIATYFCQQGKTLPYAFGGGTKLEINR
Recombinant human IL-1α [1]
  Potency (IC50), MRC-5 bioassay: 0.67 nM
Recombinant human IL-1α [2]
  IC50, inhibition of IL-8 production by MRC-5 cells: 0.67 nM

B3: hIL-1a/bDVD2-Ig (bispecific antibody, human IgG1, kappa)
heavy: not shown
light: NIVLTQSPASLAVSLGQRATISCRASESVDSYGNSYMHWYQQKPGQPPKLLIYLASNLESGVPARFSGSGSRTDFTLTIDPVEADDAATYYCQQNNEDPFTFGSGTKLEIKRADAAPNIQMTQTTSSLSASLGDRVTISCRASQDISNCLNWYQQKPDGTVKLLIYYTSRLHSGVPSRFSGSGSGTDYSLTISNLEQEDIATYFCQQGKTLPYAFGGGTKLEINRTVAAPSVFIFPPSDEQLKSGTASVVCLLNNFYPREAKVQWKVDNALQSGNSQESVTEQDSKDSTYSLSSTLTLSKADYEKHKVYACEVTHQGLSSPVTKSFNRGEC
Recombinant human IL-1α [1]
  Potency (IC50), MRC-5 bioassay: 2.9 nM
Recombinant human IL-1β [3]
  Potency (IC50), MRC-5 bioassay: 1.6 nM
Recombinant human IL-1α [4]
  dual-inhibition activity, IL-8 synthesis by MRC-5 cells with both IL-1α and IL-1β present: 1.2 nM
  neutralizing activity against hIL-1α relative to the chimeric Abs: 3 fold
Recombinant human IL-1β [5]
  dual-inhibition activity, IL-8 synthesis by MRC-5 cells with both IL-1α and IL-1β present: 1.2 nM
  neutralizing activity to hIL-1β relative to DVD1-Ig: 3 fold

B4: murine anti-hIL-1β mAb 1B12.4H4 (antibody, V domains shown)
VH: QVHLKESGPGLVAPSQSLSITCTVSGFSLTDYGVSWIRQPPGKGLEWLGLIWGGGDTYYNSPLKSRLSIRKDNSKSQVFLKMNSLQTDDTAVYYCAKQRTLWGYDLYGMDYWGQGTSVTVSS
VL: ETTVTQSPASLSMAIGEKVTIRCITSTDIDVDMNWYQQKPGEPPKLLISQGNTLRPGVPSRFSSSGSGTDFVFIIENMLSEDVADYYCLQSDNLPLTFGAGTKLELKR
Recombinant human IL-1β [6]
  IC50, MRC-5 bioassay: 0.6 nM
Recombinant human IL-1β [7]
  IC50, inhibition of IL-8 production by MRC-5 cells: 0.53 nM

B5: murine anti-hIL-1β mAb 13F5.G5 (antibody, V domains shown)
VH: QVQLQQSGAELVRPGSSVKISCKASGYAFSSYWMNWVKQRPGQGLEWIGQIYPGDGDTNYNGKFKGKATLTADKSSSTSYMQLSGLTSEDSAMYFCVRFPTGNDYYAMDYWGQGTSVTVSS
VL: NIVLTQSPASLAVSLGQRATISCRASESVDSYGNSYMHWYQQKPGQPPKLLIYLASNLESGVPARFSGSGSRTDFTLTIDPVEADDAATYYCQQNNEDPFTFGSGTKLEIKR
Recombinant human IL-1β [3]
  Potency (IC50), MRC-5 bioassay: 0.6 nM
Recombinant human IL-1β [7]
  IC50, inhibition of IL-8 production by MRC-5 cells: 0.6 nM

B6: DVD1812SL (anti-IL12/IL18 DVD-Ig) (bispecific antibody, human IgG1, kappa)
heavy: not shown
light: EIVMTQSPATLSVSPGERATLSCRASESISSNLAWYQQKPGQAPRLFIYTASTRATDIPARFSGSGSGTEFTLTISSLQSEDFAVYYCQQYNNWPSITFGQGTRLEIKRTVAAPQSVLTQPPSVSGAPGQRVTISCSGSRSNIGSNTVKWYQQLPGTAPKLLIYYNDQRPSGVPDRFSGSKSGTSASLAITGLQAEDEADYYCQSYDRYTHPALLFGTGTKVTVLGTVAAPSVFIFPPSDEQLKSGTASVVCLLNNFYPREAKVQWKVDNALQSGNSQESVTEQDSKDSTYSLSSTLTLSKADYEKHKVYACEVTHQGLSSPVTKSFNRGEC
Human IL-12 [8]
  Potency (IC50), IL-12-induced IFN-γ production by PHA blast cells: 0.366 nM
Human IL-18
  Potency (IC50), KG-1 bioassay (IFN-γ production): 0.04 nM

B7: DVD1812LL (anti-IL12/IL18 DVD-Ig) (bispecific antibody, human IgG1, kappa)
heavy: not shown
light: EIVMTQSPATLSVSPGERATLSCRASESISSNLAWYQQKPGQAPRLFIYTASTRATDIPARFSGSGSGTEFTLTISSLQSEDFAVYYCQQYNNWPSITFGQGTRLEIKRTVAAPSVFIFPPQSVLTQPPSVSGAPGQRVTISCSGSRSNIGSNTVKWYQQLPGTAPKLLIYYNDQRPSGVPDRFSGSKSGTSASLAITGLQAEDEADYYCQSYDRYTHPALLFGTGTKVTVLGTVAAPSVFIFPPSDEQLKSGTASVVCLLNNFYPREAKVQWKVDNALQSGNSQESVTEQDSKDSTYSLSSTLTLSKADYEKHKVYACEVTHQGLSSPVTKSFNRGEC
Human IL-12 [8]
  Potency (IC50), IL-12-induced IFN-γ production by PHA blast cells: 0.118 nM
Human IL-18
  Potency (IC50), KG-1 bioassay (IFN-γ production): 0.078 nM

B8: ABT874 (anti-human IL-12p40 mAb) (antibody, V domains shown)
VH: QVQLVESGGGVVQPGRSLRLSCAASGFTFSSYGMHWVRQAPGKGLEWVAFIRYDGSNKYYADSVKGRFTISRDNSKNTLYLQMNSLRAEDTAVYYCKTHGSHDNWGQGTMVTVSS
VL: QSVLTQPPSVSGAPGQRVTISCSGSRSNIGSNTVKWYQQLPGTAPKLLIYYNDQRPSGVPDRFSGSKSGTSASLAITGLQAEDEADYYCQSYDRYTHPALLFGTGTKVTVLG
Human IL-12 [8]
  IC50, IL-12-induced IFN-γ production by PHA blast cells: 0.005 nM

B9: mouse anti-mouse IL-1α mAb 9H10 (antibody, V domains shown)
VH: QVILKESGPGILQPSQTLSLTCSFSGFSLSTYGTAVNWIRQPSGKGLEWLAQIGSDDRKLYNPFLKSRITLSEDTSNSQVFLKITSVDTEDSATYYCANGVMEYWGLGTSVTVSS
VL: SIVMTQTPKFLLVSAGDRVTITCKASQSVNHDVAWYQQMPGQSPKLLIYFASNRYTGVPDRFTGSGYGTDFTFTISTVQAEDLAVYFCQQDYSSPYTFGGGTKLEIKR
Mouse IL-1α
  IC50, in vitro potency (assay not described): 0.2 nM

B10: mouse anti-mouse IL-1β mAb 10G11 (antibody, V domains shown)
VH: EVQLQQSGPELVKPGTSVKMSCKTSGYTFTSYVMHWVKQKPGQGLEWIGYIIPYNDNTKYNEKFKGKATLTSDKSSSTAYMELSSLTSEDSAVYYCARRNEYYGSSFFDYWGQGTTLTVSS
VL: DIQMTQSPASLSASVGETVTITCRGSGILHNYLVWYQQKQGKSPQLLVYSAKILADGVPSRFSGSGSGTQYSLKINSLQPEDFGSYYCQHFWSTPFTFGSGTKLEIKR
Mouse IL-1β
  IC50, in vitro potency (assay not described): 0.37 nM

B11: murine anti-hIL-1β mAb 6B12.4F6 (antibody, V domains shown)
VH: EVQLQQSGPELVKTGTSVKISCKASGYSFTGYYMHWVRQSHGKSLEWIGYISCYNGFTSYNPKFKGKATFTVDTSSSTAYIQFSRLTSEDSAVYYCARSDYYGTNDYWGQGTTLTVSS
VL: QIVLTQSPAIMSASPGEKVTITCSASSSVSYMHWFQQKPGASPKLWIYSTSNLASGVPARFSGSGSGTSYSLTVSRMEAEDAATYYCQQRSTYPYTFGGGTKLEIKR
Recombinant human IL-1β [6]
  IC50, MRC-5 bioassay: 0.4 nM
Recombinant human IL-1β [7]
  IC50, inhibition of IL-8 production by MRC-5 cells: 0.32 nM

B12: anti-IL-12 mAb 1D4.1 (antibody, V domains shown)
VH: EVTLRESGPALVKPTQTLTLTCTFSGFSLSKSVMGVSWIRQPPGKALEWLAHIYWDDDKYYNPSLKSRLTISKDTSKNQVVLTMTNMDPVDTATYYCARRGIRSAMDYWGQGTTVTVSS
VL: DIVMTQSPDSLAVSLGERATINCKASQSVSNDVAWYQQKPGQPPKLLIYYASNRYTGVPDRFSGSGSGTDFTLTISSLQAEDVAVYYCQQDYNSPWTFGGGTKVEIKR
Human IL-12 [9]
  Potency (IC50), PBMC assay (IL-12): 0.418 nM
